Data: patent US20200332015A1 (NAMAB THERAPEUTICS, published 2020)

Tests used:
[1] = target: cynomolgus PDL1-Fc chimeric protein (cynomolgus, UniProt G7PSE7 19-238); experiment: SPR T200, antigen-Fc captured, molecule as analyte
Protocol: (§1) Affinity to PDL1 of the different species was determined by SPR measurements using a Biacore T200 device (GE Healthcare). An antibody specific for the Fc region of human IgGs was immobilized on a sensor chip (CM5 sensor chip, GE Healthcare) by amine-coupling. For all formats, with the exception of the Fc containing Morrison formats, PDL1-Fc chimeric protein from different species were captured by the immobilized antibody. Three-fold serial dilutions of the molecules specific for PDL1 (0.12-90 nM) were injected into the flow cells for three minutes and dissociation was monitored for 10 minutes. After each injection cycle, surfaces were regenerated with one injection of a 3 M MgCl₂ solution. The apparent dissociation (kd) and association (kₐ) rate constants and the apparent dissociation equilibrium constant (KD) were calculated using one-to-one Langmuir binding model. Affinity to CD137 of the different species was determined using the identical setup as for PDL1 with the exception that CD137-Fc chimeric proteins from different species were captured by the immobilized antibody.

[2] = target: human PDL1-Fc chimeric protein (human, UniProt Q9NZQ7 19-238, limits assumed); experiment: SPR T200, antigen-Fc captured, molecule as analyte
Protocol: as §1

[3] = target: T1, human PDL1 extracellular domain (human, UniProt Q9NZQ7 19-238); experiment: SPR T200, Morrison format captured, ECD analyte
T1 construct: extracellular domain; Analyte for the Fc containing Morrison formats
Protocol: as §1
The Fc containing formats were directly captured by the antibody specific for the Fc region of human IgGs. Two-fold serial dilutions of PDL1 extracellular domain or CD137 extracellular domain ranging from 90 to 0.35 nM were tested for binding to the IgG captured on the biosensor chip. After each injection cycle, surfaces were regenerated with one injection of a 3 M MgCl2 solution.

[4] = target: T2, Fc tagged human CD137 (R&D Systems, cat. 838-4B-100) (human, UniProt Q07011 24-186); experiment: SPR T200, antigen-Fc captured, molecule as analyte
T2 construct: also called CD137 Fc chimera; human CD137-Fc chimeric protein
Protocol: as §1

[5] = target: T3, human CD137 expressed on Jurkat cells (human, UniProt Q07011 24-255); experiment: cell-based or functional assay
[6] = target: T3, human CD137 expressed on Jurkat cells; experiment: cell-based or functional assay; remark: listed apart in the source
[7] = target: T3, human CD137 expressed on Jurkat cells; experiment: cell-based or functional assay; remark: listed apart in the source
[8] = target: T4, cynomolgus monkey Fc-tagged CD137 (R&D Systems, cat. 9324-4B-100) (cynomolgus monkey, UniProt A9YYE7 24-186); experiment: SPR T200, Fc-tagged antigen captured, scFv analyte
T4 construct: also called cynomolgus CD137-Fc chimeric protein
Protocol: (§2) Affinity of the humanized scFvs to human CD137 was determined by SPR analysis on a T200 device (Biacore, GE Healthcare). […] After each analyte injection cycle, the anti-human Fc-specific IgG was regenerated and new antigen was captured. The scFvs were injected as analyte using a dose response multi-cycle kinetic assay over the captured CD137 with concentrations of the analyte ranging from 0.19 to 45 nM (three-fold dilutions steps) diluted in running buffer. Association and dissociation time were set to 300 s and 720 s, respectively. Obtained sensorgrams were fitted using the 1:1 binding model.
Cross-reactivity to cynomolgus CD137 was measured with cynomolgus monkey Fc-tagged CD137 (R&D Systems, cat. 9324-4B-100) in a similar assay as used to measure binding to human CD137.

[9] = target: T2, Fc tagged human CD137 (R&D Systems, …); experiment: SPR T200, Fc-tagged antigen captured, scFv analyte
Protocol: as §2

T4 sequence (A9YYE7 entry or part of it): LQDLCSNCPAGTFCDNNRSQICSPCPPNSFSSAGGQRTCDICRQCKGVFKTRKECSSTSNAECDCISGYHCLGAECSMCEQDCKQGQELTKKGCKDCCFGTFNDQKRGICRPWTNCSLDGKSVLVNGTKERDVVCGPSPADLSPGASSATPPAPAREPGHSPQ
Chain of cynomolgus PDL1-Fc chimeric protein (G7PSE7 entry or part of it mutant): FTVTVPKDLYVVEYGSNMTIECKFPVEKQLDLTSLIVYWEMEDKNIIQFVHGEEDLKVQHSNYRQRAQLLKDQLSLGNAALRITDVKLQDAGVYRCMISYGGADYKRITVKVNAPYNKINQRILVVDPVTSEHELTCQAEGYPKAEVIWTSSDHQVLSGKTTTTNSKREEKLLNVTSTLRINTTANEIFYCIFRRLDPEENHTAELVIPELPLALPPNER

B1: PRO830 (33-03-G02 CDR, scFv) (scFv)
scFv: DIQMTQSPSSLSASVGDRVTITCQASQSINDYLAWYQQKPGKAPKLLIYKASTLASGVPSRFSGSGSGTDFTLTISSLQPEDFATYYCQQGYIITDIDNVFGTGTKVTVLGGGGGSGGGGSGGGGSGGGGSQVQLQESGPGLVKPSETLSLTCKVSGFSFSSGYDMCWIRQPPGKGLEWIGCVVAGSVDITYYASWAKGRVTISVDSSKNQFSLKLSSVTAADTAVYYCARKDAYSDAFNLWGQGTLVTVSS
**Q.** B1 was tested. Which Kd [1] did it give?
**A.** 0.094 nM

**Q.** What about the koff [1] of the same binder?
**A.** 0.0002 s⁻¹

**Q.** And the kon [1]?
**A.** 2.2e+06 M⁻¹ s⁻¹

**Q.** And the Kd [2]?
**A.** 0.076 nM

**Q.** And the koff [2]?
**A.** 0.00016 s⁻¹

**Q.** And the kon [2]?
**A.** 2.1e+06 M⁻¹ s⁻¹

B2: PRO1062 (33-03-G02 sc01 IgG1 HC with 38_27_C05 sc01 scFv, PDL1/CD137(scFv) silent Morrison) (bispecific antibody)
light: DIQMTQSPSSLSASVGDRVTITCQASQSINDYLAWYQQKPGKAPKLLIYKASTLASGVPSRFSGSGSGTDFTLTISSLQPEDFATYYCQQGYIITDIDNVFGTGTKVTVLGTVAAPSVFIFPPSDEQLKSGTASVVCLLNNFYPREAKVQWKVDNALQSGNSQESVTEQDSKDSTYSLSSTLTLSKADYEKHKVYACEVTHQGLSSPVTKSFNRGEC
heavy: QVQLQESGPGLVKPSETLSLTCKVSGFSFSSGYDMCWIRQPPGKGLEWIGCVVAGSVDITYYASWAKGRVTISVDSSKNQFSLKLSSVTAADTAVYYCARKDAYSDAFNLWGQGTLVTVSSASTKGPSVFPLAPSSKSTSGGTAALGCLVKDYFPEPVTVSWNSGALTSGVHTFPAVLQSSGLYSLSSVVTVPSSSLGTQTYICNVNHKPSNTKVDKRVEPKSCDKTHTCPPCPAPEAAGGPSVFLFPPKPKDTLMISRTPEVTCVVVDVSHEDPEVKFNWYVDGVEVHNAKTKPREEQYNSTYRVVSVLTVLHQDWLNGKEYKCKVSNKALGAPIEKTISKAKGQPREPQVYTLPPSREEMTKNQVSLTCLVKGFYPSDIAVEWESNGQPENNYKTTPPVLDSDGSFFLYSKLTVDKSRWQQGNVFSCSVMHEALHNHYTQKSLSLSPGKGGGGSGGGGSIQMTQSPSSLSASVGDRVTITCQASQSINNVLAWYQQKPGKAPKLLIYRASTLASGVPSRFSGSGSGTDFTLTISSLQPEDFATYYCQSSYGNYGDFGTGTKVTVLGGGGGSGGGGSGGGGSGGGGSQVQLQESGPGLVKPSETLSLTCKVSGFSFSNSYWICWIRQPPGKGLEWIGCTFVGSSDSTYYANWAKGRVTISVDSSKNQFSLKLSSVTAADTAVYYCARHPSDAVYGYANNLWGQGTLVTVSS
notes: also called PR01062; Morrison-H
**Q.** Which Kd [3] does the source give for B2 here?
**A.** 0.038 nM

**Q.** What about the koff [3] of the same binder?
**A.** 5e-05 s⁻¹

**Q.** What about the kon [3] of the same binder?
**A.** 1.3e+06 M⁻¹ s⁻¹

B3: PRO1058 (38_27_C05 scDb-i/33-03-G02 sc01 scDb-o/mxr HSA (23-13-A01-sc03, sk17sh4)) (other)
chain: DIQMTQSPSSLSASVGDRVTITCQASQSINDYLAWYQQKPGKAPKLLIYKASTLASGVPSRFSGSGSGTDFTLTISSLQPEDFATYYCQQGYIITDIDNVFGTGTKVTVLGGGGGSQVQLQESGPGLVKPSETLSLTCKVSGFSFNNDYDMCWIRQPPGKGLEWIGCIDTGDGSTYYASWAKGRVTISVDSSKNQFSLKLSSVTAADTAVYYCAREAASSSGYGMGYFDLWGQGTLVTVSSGGGGSGGGGSGGGGSGGGGSIQMTQSPSSLSASVGDRVTITCQSSQSVYDNNWLAWYQQKPGKAPKLLIYRASNLASGVPSRFSGSGSGTDFTLTISSLQPEDFATYYCQGTYLSSNWYWAFGTGTKVTVLGGGGGSQVQLQESGPGLVKPSETLSLTCKVSGFSFSSGYDMCWIRQPPGKGLEWIGCVVAGSVDITYYASWAKGRVTISVDSSKNQFSLKLSSVTAADTAVYYCARKDAYSDAFNLWGQGTLVTVSSGGGGSGGGGSVVMTQSPSSLSASVGDRVTITCQASQIISSRSAWYQQKPGQPPKLLIYQASKLASGVPSRFSGSGSGTDFTLTISSLQPEDFATYYCQCTYIDSNFGAFGGGTKLTVLGGGGGSGGGGSGGGGSGGGGSEVQLVESGGGLVQPGGSLRLSCAASGFSFSSSYWICWVRQAPGKGLEWVGCVFTGDGTTYYASWAKGRFTISRDNSKNTVYLQMNSLRAEDTATYFCARPVSVYYYGMDLWGQGTLVTVSS
notes: Trispecific scDb-scFv; also called PR01058
**Q.** How did the Kd [4] turn out when B3 was run?
**A.** 1.2 nM

**Q.** What about the koff [4] of the same binder?
**A.** 0.0021 s⁻¹

**Q.** What about the kon [4] of the same binder?
**A.** 1.7e+06 M⁻¹ s⁻¹

**Q.** And the Kd [2]?
**A.** 0.16 nM

**Q.** And the koff [2]?
**A.** 0.00019 s⁻¹

**Q.** And the kon [2]?
**A.** 1.2e+06 M⁻¹ s⁻¹

**Q.** What about the “EC50 NFkB-luciferase, CHO-PDL1 cells, 24 h, + HBA (so in the source)” value [5] of the same binder?
**A.** 0.121 µg/mL

**Q.** What about the “Top of curve fit, NFkB-luciferase, CHO-PDL1 cells, 24 h, + HBA (so in the source)” value [5] of the same binder?
**A.** 20.5

**Q.** What about the “EC50 NFkB-luciferase, CHO-PDL1 cells, 6 h, + HSA” value [6] of the same binder?
**A.** 0.0709 µg/mL

**Q.** What about the “Top of curve fit, NFkB-luciferase, CHO-PDL1 cells, 6 h, + HSA” value [6] of the same binder?
**A.** 40.1

**Q.** And the “max. activation, NF-kB reporter gene, CHO-PD-L1, 24h” value [7]?
**A.** 36.2%

**Q.** What about the “rel. IC50 (urelumab/test), NF-kB reporter gene, CHO-PD-L1, 24h” value [7] of the same binder?
**A.** 0.64 ratio

B4: PRO1013 (37-20-B03 CDR, VH1, scFv) (scFv)
scFv: DIQMTQSPSSLSASVGDRVTITCQASQSIGTYLAWYQQKPGKAPKLLIYRAFILASGVPSRFSGSGSGTDFTLTISSLQPEDFATYYCQSNFYSDSTTIGPNAFGTGTKVTVLGGGGGSGGGGSGGGGSGGGGSQVQLVQSGAEVKKPGASVKVSCKASGFSFNSDYWIYWVRQAPGQGLEWMGSIYGGSSGNTQYASWAQGRVTMTRDTSISTAYMELSSLRSEDTAVYYCARGYVDYGGATDLWGQGTLVTVSS
notes: its row bears no clone label
**Q.** Which Kd [1] does the source give for B4 here?
**A.** 0.053 nM

**Q.** What about the koff [1] of the same binder?
**A.** 0.00032 s⁻¹

**Q.** And the kon [1]?
**A.** 5.9e+06 M⁻¹ s⁻¹

**Q.** And the Kd [2]?
**A.** 0.045 nM

**Q.** And the koff [2]?
**A.** 0.00027 s⁻¹

**Q.** What about the kon [2] of the same binder?
**A.** 6e+06 M⁻¹ s⁻¹

B5: PRO1181 (38-02-A04-sc05, IF graft, VH4, scFv) (scFv)
scFv: DIQMTQSPSSLSASVGDRVTITCQASQSINNVLAWYQQKPGKPPKLLIYRASTLASGVPSRFSGSGSGTDFTLTISSLQPEDFATYYCQSSYGNYGDFGTGTKVTVLGGGGGSGGGGSGGGGSGGGGSQVQLQESGPGLVKPSETLSLTCKVSGFSFSNSYWICWVRQPPGKGLEWIGCTFVGSSDSTYYANWAKGRVTISVDSSKNQVSLKLSSVTAADTAVYFCARHPSDAVYGYANNLWGQGTLVTVSS
notes: VL-linker-VH
**Q.** What does the source list for B5?
**A.** Kd [8]: 1.36 nM; koff [8]: 0.00053 s⁻¹; kon [8]: 388000 M⁻¹ s⁻¹; Kd [9]: 1.37 nM; koff [9]: 0.00048 s⁻¹; kon [9]: 350000 M⁻¹ s⁻¹

B6: PRO1182 (38-02-A04-sc06, FULL graft, VH4, scFv) (scFv)
scFv: DLQMTQSPSSLSASVGDRVTITCQASQSINNVLAWYQQKPGKPPKLLIYRASTLASGVPSRFSGSGSGTDFTLTISSLQPEDFATYYCQSSYGNYGDFGTGTKVTVLGGGGGSGGGGSGGGGSGGGGSQVQLQESGPGLVKPSETLSLTCKASGFSFSNSYWICWVRQPPGKGLEWIGCTFVGSSDSTYYANWAKGRVTISKDSSKNQVSLKLSSVTAADTAVYFCARHPSDAVYGYANNLWGQGTLVTVSS
notes: VL-linker-VH
**Q.** How did the Kd [8] turn out when B6 was run?
**A.** 0.0142 nM

**Q.** And the koff [8]?
**A.** 1.83e-05 s⁻¹

**Q.** What about the kon [8] of the same binder?
**A.** 1.29e+06 M⁻¹ s⁻¹

**Q.** What about the Kd [9] of the same binder?
**A.** 0.0179 nM

**Q.** And the koff [9]?
**A.** 2.58e-05 s⁻¹

**Q.** And the kon [9]?
**A.** 1.44e+06 M⁻¹ s⁻¹
